# Source: the domain aggregation screens of Martell et al. (2025)
# Assay: soluble fraction after stress (log2 fold change); higher = more stays soluble; pooled small domains, quantitative proteomics
# Settings: stress: pH 4
# In short: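 Values are log2 fold changes, and higher ones mean more of the domain stayed soluble. Each fold change reflects the soluble amount of a domain after acid stress and is taken as a measure of aggregation propensity. The stress was pH 4, applied to pooled custom libraries of small protein domains analysed by high-throughput quantitative proteomics.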
row,Sequence,soluble fraction (log2)
1,HMDIEELLSRSTDRLSRQTEIRRLLADAQGRPNISSLARRFKVARRTVIRDLQELIRRGEVPPEIYPK,-0.0624
2,HMDIEFSDELRTFIDEWSKKEGGLVMMLHRIQNEYGFIPRTAAEKLSLISGIPLARIYGVITFYHFFKT,-1.01
3,HMDIGNKIKELRTEQKMTQSDLAERLGVTKSSISSYENGSRLPSYDILLKIARIFKVSTDILLG,-0.637
4,HMDIGTRQRIIAAAMELFRQKGMDGMSMRELAERAGVNKGLLHYYFTTKEAIFREVFVHQVEM,-0.0208
5,HMDIIIEEGIDESLSTDDAILDLLGRASDAFSNAQKALLEGDLGSYQKLIEQAERLVKKATELLGENN,-1.1
6,HMDIMNNILINRIKKILTEQNMSKADLSRLTGISNSSLSEYLNGKYEPKQDKIALIAKALHVSPAWLMGF,0.166
7,HMDINNTNFSRDVDNLLQNEEFIKWRIFRTKEWEDYWENFRKENPHMEDALQEAISRFNAVK,-0.736
8,HMDINVDILPLLKTMTDTLRKVIELDIPFLKDARVQRVNSLDELLLRADITTAEKFRKVFEAYQIEADFGK,-1.05
9,HMDIPDIGHNVRIEVDGHNGKTTHEGIILHPAAPNHITIKLANGYNASYKLEEIINIEILGELGDDSKI,-0.863
10,HMDIPITFEQLPAKAQAFVKQYFKIEEIASVWRDDDIHDQDYKVYFNDGSEIEFYANGDWEEV,-0.468
11,HMDIPTSAEAVRAYLASGFIKGIGEATARMLVDKFGAETLEIIKTEPMKLTKISGIGPKKAKMIHESYLEK,-0.0191
12,HMDIRLMPGTVLTREYQGIEHRVTVAQDGQYEFEGRRYPSLSMIAREITGTRWSGPLFFGVK,0.141
13,HMDISEIEKRLLDFLEMPRSRKEIAEHLGIRTISYAIQTYITPLIDKKLVKMTIPESPRSHSQQYVRIN,-0.125
14,HMDISRMNLSQTERAVLSVLDSQPLHTEEIIASADLRAGAIHSALISLQLKGLIKQLPGNLYVK,-0.035
15,HMDITKPKISFEPGEMVRVVDGPFNDFSGVVEEVNYEKSKVRVAVLIFGRSTPVELQFNQIEK,-0.523
16,HMDITTIIADVPGPKTQIKVDIKNTSLHIFGGMNFKKEIDIGDNKEIINIKYINGTLTVKLKT,-0.466
17,HMDIVGAINKIESMKQDRYLAMHPYSITHSADGYYRTYLPADDGKRKQIKKKSKSDLEKVVIDYWTKRS,≥ 0.43
18,HMDIVKVYTTARAGETLASVAKRTGVDVARLAQWNDIPLKRAKQKLKTGKALALWVQREHASAYSNAPP,0.22
19,HMDIVQLSEKINVMKMEIPAQAIGKTVLEVNFRARFDLNIIAIENGGKLVEVIKPDYVFREGDILFLSGS,-1.31
20,HMDIYENIDKELSKQGKSRRKLAIAAGIPPSTFQSMMERKRGLSVENLRKIAEVLNLKWYDLL,0.135
21,HMDIYKKFIIPATYFGSRLDHVLSELLPELSRSKIQNMIKQNLVMINGNHAAQKQKVVGDEEIIIKDI,-0.089
22,HMDKAALGQKLRQARLDKGYTQQSLSEKADIGEVYLSEIERGLKMPSMNLFIKLITALDISADYILR,-1
23,HMDKDTFGEFENVKLTEEEYNKLVEKLGENNTKLMIEELSTGIASKGYKYKSHYATILSWSRRRVTKLQER,-1.18
24,HMDKEIKILKEKRLDDVQQAIRELSPQKRRVVEMKLYHNSTNQEVADKLAISVNTVKSLYTSALHDLRRIL,0.109
25,HMDKESQTMFRLLTGVSGVGPKVGLAILSVLSPDRVVLAISAGDHKAFTAASGVGPKLGQRIVLELKDKVG,-0.557
26,HMDKEVLYVTVNDKKVKLDGKNHIFIDIFNYIDFDIKKPNGSIVLKLNGKNAGYMDEIKDGDKIEIYWDK,-0.277
27,HMDKEVMEAVLRILYDDDFNPDQRDAILYFFVQELDQRTISEITGAKIGTVKKRIHDGLKKLRQKLAKEDL,-1.03
28,HMDKGEQILQQALDKLPPKQRQVFEMRYFDEMPYREIATITETSEGALKASYHHAVKKIQQYISHL,-0.0313
29,HMDKGQRGWINLVSVPTARVIIDGYDTGHETPLYGYEVERGKRKVTLISLDGTYERTYEIRIEPGTTTRVR,-0.947
30,HMDKIEVVEVDMSKPYEDMTVTELQNVILDKLASNGPVTNQMKKDVSENIYHDSLVNWAKSF,-0.541
